Assay results: publication PMC3072266

Target: 3AB wild type (poliovirus type 1 (Mahoney), UniProt P03300 1457-1565)
Experiment: EMSA

Chain of 3AB wild type (P03300 1457-1565): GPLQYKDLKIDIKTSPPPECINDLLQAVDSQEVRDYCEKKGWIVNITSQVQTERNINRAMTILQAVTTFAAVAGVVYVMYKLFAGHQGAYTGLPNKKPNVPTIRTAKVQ

B1: 40-mer RNA (ssRNA)
RNA: GAGUGCACCAUAUGCCAUUCAGGCUACGCAACUGUUGGGA
- binding result: binds
